Reference: CN111434682A
Values joined by “and” are separate entries in the source; they are usually repeats but may differ in a detail not shown here. Equal values may be shown once. Read-outs that look alike come from different tables or passages of the source.

B1: 抗H7N9全人源单克隆抗体7T33 (antibody, V domains shown)
VH: QVQLVESGAEVKKPGASVKVSCKASGTIFYSTEINWVRQATGQGLEWMGWMNPESGEYGFAQKFQGRVTMTRNTSITTAYMELSSLTSEDTAVYYCAYGNAECSAGGSCTNWFGEPWGQGTLVTVSS
VL: SSELTQDPAVSVALGQTVRITCQGDRLRSTTASWYQQKPGQAPVLVIYGKNNRPSGIPDRFSGSSSGNTASLTITGAQAEDEADYYCNSREYSGTHLVFGGGTKLTVLV

Legend:
[1] = biological target: H7N9病毒的HA蛋白(购自ACROBiosystems) (H7N9 influenza virus); experiment: ELISA, HA coated at 100 ng/well, negative control, anti-human IgG-HRP
[2] = biological target: H7N9病毒的HA蛋白(购自ACROBiosystems) (H7N9 influenza virus)
[3] = biological target: H7N9病毒 A/Anhui/1/2013 (H7N9 influenza virus A/Anhui/1/2013); experiment: cell-based or functional assay
[4] = biological target: H7N9病毒的HA蛋白(购自ACROBiosystems) (H7N9 influenza virus); remark: listed apart in the source

Molecule | 450nm absorbance [1] | Kd [2] | IC50, micro-neutralisation ELISA on MDCK cells infected with H7N9 virus [3] | 450nm absorbance [4]
阴性对照 (negative control of the ELISA) | 0.0675 OD450 and 0.0554 OD450 | – | – | –
B1 | – | 5.43 nM | 12.8 µg/mL | 1.53 OD450 and 1.86 OD450 and 1.8 OD450
